From patent US20250277199, “NOVEL CRISPR-CAS NUCLEASES FROM METAGENOMES” (Brain Biotech AG, published 2025)

Molecular target: T1, BMC11 (uncultured bacterium (metagenome))
T1 chain: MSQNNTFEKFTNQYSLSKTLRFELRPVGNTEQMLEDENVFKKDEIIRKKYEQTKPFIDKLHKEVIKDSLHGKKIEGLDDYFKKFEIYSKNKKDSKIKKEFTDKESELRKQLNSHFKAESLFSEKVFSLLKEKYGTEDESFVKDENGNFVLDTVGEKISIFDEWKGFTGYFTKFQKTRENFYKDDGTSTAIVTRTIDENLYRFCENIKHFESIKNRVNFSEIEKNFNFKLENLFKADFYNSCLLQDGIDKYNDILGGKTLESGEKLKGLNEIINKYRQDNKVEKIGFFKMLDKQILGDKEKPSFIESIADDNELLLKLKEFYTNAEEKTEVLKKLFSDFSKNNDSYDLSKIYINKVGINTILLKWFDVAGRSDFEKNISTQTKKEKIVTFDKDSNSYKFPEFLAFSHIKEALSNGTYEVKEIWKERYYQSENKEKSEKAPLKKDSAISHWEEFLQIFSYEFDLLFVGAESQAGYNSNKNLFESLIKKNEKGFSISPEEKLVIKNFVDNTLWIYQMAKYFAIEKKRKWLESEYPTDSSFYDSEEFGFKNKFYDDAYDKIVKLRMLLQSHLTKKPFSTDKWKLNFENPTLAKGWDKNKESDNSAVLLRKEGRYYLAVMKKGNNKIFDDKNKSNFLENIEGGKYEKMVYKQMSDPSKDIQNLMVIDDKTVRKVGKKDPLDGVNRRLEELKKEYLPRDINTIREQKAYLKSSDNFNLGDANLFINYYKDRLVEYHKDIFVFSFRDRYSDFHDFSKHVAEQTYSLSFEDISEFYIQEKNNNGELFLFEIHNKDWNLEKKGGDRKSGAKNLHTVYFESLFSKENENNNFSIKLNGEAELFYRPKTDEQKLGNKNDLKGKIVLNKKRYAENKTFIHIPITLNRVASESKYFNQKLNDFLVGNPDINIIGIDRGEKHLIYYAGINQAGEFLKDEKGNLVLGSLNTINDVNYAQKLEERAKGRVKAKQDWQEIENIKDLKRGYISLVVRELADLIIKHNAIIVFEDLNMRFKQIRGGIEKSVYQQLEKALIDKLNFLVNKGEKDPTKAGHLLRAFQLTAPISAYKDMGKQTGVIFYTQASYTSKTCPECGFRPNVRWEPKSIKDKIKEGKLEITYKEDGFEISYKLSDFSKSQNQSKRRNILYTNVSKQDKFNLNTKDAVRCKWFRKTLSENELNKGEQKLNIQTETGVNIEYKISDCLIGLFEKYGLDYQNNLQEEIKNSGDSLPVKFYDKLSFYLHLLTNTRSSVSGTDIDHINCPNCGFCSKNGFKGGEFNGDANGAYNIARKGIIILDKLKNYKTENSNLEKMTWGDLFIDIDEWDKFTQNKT
Assay: cell_activity; PAM not stated; E. coli depletion, 30 C
Method in brief: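 E. coli carrying arabinose-induced (0.2%) BMC nuclease, grown at 30° C., made electrocompetent and electroporated with 50-100 ng plasmid carrying gRNA against malQ. Transformants plated on selective M9-glucose agar with kanamycin/ampicillin (± nourseothricin), and growth scored after 48 h at 30° C.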

B1: malQ gRNA (BMC stem-loop + 24 nt spacer) ; malQ protospacer (ssRNA ; dsDNA)
RNA: GAUUUCUACUAUUGUAGAUGUGGCGGUACGUUGAUGCAUCGCG
DNA 1: GTGGCGGTACGTTGATGCATCGCG
DNA 2: CGCGATGCATCAACGTACCGCCAC
For B1, the activity was over 99.9 % colony reduction.
